Assay results reported in patent US8440629B2, “Cyclic receptor-associated protein (RAP) peptides” (Raptor Pharmaceuticals Inc., priority 2007, dated 2013).
Positions count from the first letter of the chain named. Names and notes keep the numbering of the source. Blank lines part the entries; values can stand above or below the molecule they belong to.

Assays:
[1] = molecular target: T1, MAT CR12 (Homo sapiens, UniProt Q9Y5Y6); assay: Solid phase binding assay; conditions: 80 nM ligand, FIG. 7
T1 construct: termed MAT CR12 (ST14 CR12), amino acids 452-524; made in house; host or cells: E. coli BL21(DE3) CodonPlus-RIPL, pET30(+)a
T1 sequence (Q9Y5Y6 452-524): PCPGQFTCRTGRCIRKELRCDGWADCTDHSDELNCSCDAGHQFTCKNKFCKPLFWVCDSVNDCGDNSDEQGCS
Description: (§1) All expression constructs were sequenced to verify insert sequences and the junctions with the expression vector. Each plasmid was then used to transform BL21(DE3) CodonPlus-RIPL™ cells (Stratagene). Expression of the CR proteins was induced in logarithmic growth-phase cells grown in LB supplemented with 34 μg/mL chloramphenicol, 12.5 μg/mL tetracycline and 15 μg/mL kanamycin by addition of 2 mM IPTG, followed by reduction in incubator temperature to 32° C. and incubation for 4 hours with agitation at […]. Cells were pelleted and resuspended, at 3.5% of the initial culture volume in 10 mM Tris-HCl pH 8, 100 mM NaH2PO4, 8M Urea. Resuspended cells were then frozen in liquid nitrogen, rapidly thawed to 37° C. and sonicated for 10 seconds at an amplitude setting of 60 using a Cole-Parmer CP-130 ultrasonic processor connected to a 3 mm probe. This procedure was repeated three times to effect complete lysis of the cells. Lysates were clarified by spinning twice at 10,000×g in a Sorvall RC-5 centrifuge for 20 minutes at 15° C. Ni-NTA columns (Qiagen Superflow™, 1.5 mL packed bed) were used to purify the CR proteins. Briefly, the resin was equilibrated with two column volumes of lysis buffer. The clarified lysate was then supplemented to 20 mM with imidazole and incubated with the equilibrated Ni-NTA resin overnight at 4° C. The flow-through was discarded. Columns were washed once with one column volume of lysis buffer and then three times with one column volume of TBS pH 8 supplemented with 20 mM imidazole. CR-loaded beads were then removed from the column and CR proteins eluted by incubating at room temperature for 30 minutes with one column volume of the same buffer containing 200 mM imidazole. This step was repeated once and the eluates pooled. Eluted CR protein solutions were then supplemented to 2 M urea, 10 mM CaCl2 and 5 mM DTT. Purified, denatured CR protein solutions were transferred to 3,500 MWCO Slide-A-Lyzer™ (Pierce) cassettes and sequentially dialyzed against a 200-fold excess of 50 mM Tris-HCl pH 8.5, 10 mM CaCl2, 1 mM reduced glutathione, 0.5 mM oxidized glutathione at room temperature overnight and then against TBS supplemented with 5 mM CaCl2 at 4° C. overnight. Protein concentrations were determined by Bradford assay and purity confirmed by SDS-PAGE with Coomassie Brilliant Blue staining.
(§2) Purified, refolded CR protein (1 μg) was bound to Nunc Maxisorp™ 96-well plates in TBS pH 8 supplemented with 5 mM CaCl2 (TBSC) overnight at 4° C. Wells were washed with TBSC and then blocked with TBSC containing 2% bovine serum albumin (BSA). RAP ligands were then incubated with the immobilized receptor at a range of concentrations for 2 hours in the above blocking buffer supplemented with 0.05% Tween-20 at room temperature. Control wells contained no added ligand. As an additional control, to determine whether the absence of calcium affected binding, 10 mM EGTA was included in the incubation medium for some samples. Wells were washed with TBSTC and bound ligands detected with polyclonal anti-RAP (BP41/42, 1:1,000, BioMarin). Excess primary antibody was removed and wells washed before incubation with the secondary antibody, HRP-conjugated goat anti rabbit IgG (Bio-Rad). After washing, TMB substrate solutions (Bio-Rad) were added to detect HRP. Color development was stopped with 1N HCl. Absorption at 450 nm was measured with a microplate spectrophotometer (Molecular Devices). Data were plotted and Kd values derived by non-linear regression with the assumption of single-site binding (GraphPad Prism).
(§3) From the large number of CR pairs with unique combinations of amino acids at A, C, A′ and C′ within the calcium-binding loop of each CR, CR pairs or triplets were selected to test their binding to RAP d3 (FIG. 2). An additional pair derived from the FDC-8D6 protein was tested, designated 8D6 CR12, having the sequence ([…]) (SEQ ID NO: 91). […]

[2] = molecular target: T2, MAT CR23 (Homo sapiens, UniProt Q9Y5Y6); assay: Solid phase binding assay; conditions: 80 nM ligand, FIG. 7
T2 construct: made in house; host or cells: E. coli BL21(DE3) CodonPlus-RIPL, pET30(+)a
T2 sequence (Q9Y5Y6 487-566): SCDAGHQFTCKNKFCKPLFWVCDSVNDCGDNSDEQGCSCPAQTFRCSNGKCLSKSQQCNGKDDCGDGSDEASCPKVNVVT
Description: as §1, §2, §3

[3] = tested on: the other CR pairs; assay: Binding at 80 nM to fourteen CR pairs or triplets (FIG. 7); parameters: species or system human; conditions: 80 nM ligand
Description: RAP d3, MegaRAP1 d3, VRAP2 d3, MatRAP1 d3 and MatRAP2 d3 were each incubated at 80 nM concentrations with LRP1 CR3-5, LRP6 CR12, LRP6 CR23, LRP6 CR1-3, LRP2 CR89, LRP2 CR2728, LRP2 CR3031, LRP2 CR3435, LRP2 CR34-36, VLDLR CR78, VLDLR CR6-8, MAT CR12, MAT CR23 and MAT CR34. Samples were tested twice, in duplicate, and values combined. Means and standard deviations were then calculated. Blank values obtained from wells incubated in the absence of ligand were used to correct absorbance data.
Purified, refolded CR protein (1 μg) was bound to Nunc Maxisorp™ 96-well plates in TBS pH 8 supplemented with 5 mM CaCl2 (TBSC) overnight at 4° C. Wells were washed with TBSC and then blocked with TBSC containing 2% bovine serum albumin (BSA). RAP ligands were then incubated with the immobilized receptor at a range of concentrations for 2 hours in the above blocking buffer supplemented with 0.05% Tween-20 at room temperature. Control wells contained no added ligand. […] Wells were washed with TBSTC and bound ligands detected with polyclonal anti-RAP (BP41/42, 1:1,000, BioMarin). […] Absorption at 450 nm was measured with a microplate spectrophotometer (Molecular Devices). […]
The apparent dissociation constant for binding of VRAP1 d3 to VLDLR CR78 was determined to be 44±9 nM. […]

[4] = tested on: wild-type CHO-K1 cells expressing LRP1; assay: Endocytosis-dependent toxicity assay (MTT); format: cell-based, Chinese hamster; conditions: 100 nM, 48 hours
Description: (§4) In order to determine the ability of the cyclic RAP peptides to bind receptor on the surface of a cell, binding was assessed in the presence of cultured cell lines. To determine whether cyclic RAP peptides could be bound and endocytosed by full-length LRP1 expressed on cells in culture, an endocytosis-dependent toxicity assay was used. Two cell-lines were used, Chinese hamster ovary CHO-K1 cells expressing only one high-affinity RAP-receptor, LRP1, and a mutant CHO-K1 lacking LRP1 expression was used as control. Cells were cultured in BioWhittaker UltraCHO medium (Lonza, Basel, Switzerland) supplemented with 2.5% fetal bovine serum. Cells were seeded in 12-well tissue culture plates. The biotinylated mRAPc was combined with equimolar amounts of a conjugate between streptavidin and the bacterial toxin saporin (ZAP, Advanced Targeting Systems, San Diego, Calif.). The mixture was diluted in MEM without phenol red (Mediatech, Manassas, Va.) supplemented with 10% FBS to 100 nM. Conjugated mRAPc (100 nM) and control agents (mRAPc alone, 100 nM, streptavidin-saporin alone, 100 nM, saporin alone, 1 mM) were cultured with confluent cells and cell death was assayed 48 hours later via MTT assay (Invitrogen, San Diego, Calif.).

[5] = tested on: LRP-deficient CHO-K1 cells; assay: Endocytosis-dependent toxicity assay (MTT); format: cell-based, Chinese hamster; conditions: 100 nM, 48 hours
Description: as §4

[6] = molecular target: T3, VLDLR CR78 (Homo sapiens, UniProt P98155); assay: Solid phase binding assay
T3 construct: a CR pair from VLDLR (CR78); made in house; host or cells: E. coli BL21(DE3) CodonPlus-RIPL, pET30(+)a
Description: as §1, §2, §3

[7] = molecular target: T4, VLDLR CR6-8 (Homo sapiens, UniProt P98155); assay: Solid phase binding assay; conditions: 80 nM ligand, FIG. 7
T4 construct: made in house; host or cells: E. coli BL21(DE3) CodonPlus-RIPL, pET30(+)a
Description: as §1, §2, §3

[8] = molecular target: T2, MAT CR23; assay: Binding of sequentially-truncated MatRAP1 (FIG. 9)
Description: as §2, with “Prism). […]” for “Prism).”

B2: mRAPc: minimized RAP d3, E241C, A242G, R314G, I315C, disulfide-cyclized, N-terminal biotin-GGSGG (SEQ ID NO: 99) (peptide)
chain: CGFREELKHFEAKIEKHNHYQKQLEIAHEKLRHAESVGDGERVSRSREKHALLEGRTKELGYTVKKHLQDLSGGC
modifications: disulfide cyclization; N-terminal biotin-GGSGG
effect on cell survival (in words) [4]: no effect
effect on cell survival (in words) [5]: no effect

B4: MatRAP1: RAP d3 variant selected on MAT CR23: E251G, K256R, K270W (protein)
chain: LDRLRRVSHQGYSTEAEFEEPRVIDLWDLAQSANLTDKELEAFREELKHFGAKIERHNHYQKQLEIAHEWLRHAESVGDGERVSRSREKHALLEGRTKELGYTVKKHLQDLSGRISRAR
binding at 80 nM (in words) [1]: bound
binding at 80 nM (in words) [2]: bound
binding at 80 nM to the other CR pairs (in words) [3]: not appreciably

B5: MatRAP1 N-42: MatRAP1 with 42 amino acids removed from the N-terminus (protein)
chain: FREELKHFGAKIERHNHYQKQLEIAHEWLRHAESVGDGERVSRSREKHALLEGRTKELGYTVKKHLQDLSGRISRAR
increase in binding affinity over the full-length d3 variant [8]: 3 fold

Further lines, results first:

binding at 80 nM (in words) [1]: bound
binding at 80 nM (in words) [2]: bound
binding at 80 nM to the other CR pairs (in words) [3]: not appreciably
B1: MatRAP2: RAP d3 variant selected on MAT CR34: S232P, E239G, E246G, E251L, K256P, I266T, A267V, H268R, K270P, H273Y, R287H, H290Y, K298R, S312F (protein)
chain: LDRLRRVSHQGYSTEAEFEEPRVIDLWDLAQPANLTDKGLEAFREGLKHFLAKIEPHNHYQKQLETVREPLRYAESVGDGERVSRSHEKYALLEGRTRELGYTVKKHLQDLFGRISRAR

binding at 80 nM (in words) ([6]; 80 nM ligand, FIG. 7): bound
Kd ([6]; solid-phase assay, VLDLR CR78, read-out: apparent dissociation constant (Kd)): 44 ± 9 nM
binding at 80 nM (in words) [7]: bound
B3: VRAP1 d3: RAP d3 variant selected on VLDLR CR6-8: R205S, E251R, K256L, K270E, R296L, G313D (protein)
chain: B4 chain with R5S, G51R, R56L, W70E, R96L, G113D
